Measured values: the DeepSol protein solubility set

Assay: soluble on expression in E. coli; label from the status in PepcDB or PDB records

Soluble on expression in E. coli, soluble:
GSGKSLLLKVILLGDGGVGKSSLMNRYVTNKFDSQAFHTIGVEFLNRDLEVDGRFVTLQIWDTAGQERFKSLRTPFYRGADCCLLTFSVDDRQSFENLGNWQKEFIYYADVKDPEHFPFVVLGNKVDKEDRQVTTEEAQTWCMENGDYPYLETSAKDDTNVTVAFEEAVRQVLAVEEQLE
MSENMVNLPDSLYEDYSKLKLTSPSNASSSSSAPPPRLSVVAHPTVEMIIQWVCDIHKPKSYMSDFALHNLAYHRNDFEFLPSLLWESKNTVYIMLQEVFEAYRHLAGHISLRLFPHPLNPLRVYNVFLLFQSMACHPDTSRQFLRAKMPNYFYPLMDTGLIDKSDECMRLAALGVIAHMLKASEDGAVNRYLMESGVVGFCVKPIEFGSTETKKVALYILDKIMSTDQGLYYCCVLADRFYVIDELLKKVLFYLSNMVRPPSSLFSLVTGCYVKLSQNSRARNGIRRYTPFLLFDGTFSRLYAEDPVAANNRIQLLQNLDN
MGSSHHHHHHSSGLVPRGSHMDTTVPTFSLAELQQGLHQDEFRRCLRDKGLFYLTDCGLTDTELKSAKDLVIDFFEHGSEAEKRAVTSPVPTMRRGFTGLESESTAQITNTGSYSDYSMCYSMGTADNLFPSGDFERIWTQYFDRQYTASRAVAREVLRATGTEPDGGVEAFLDCEPLLRFRYFPQVPEHRSAEEQPLRMAPHYDLSMVTLIQQTPCANGFVSLQAEVGGAFTDLPYRPDAVLVFCGAIATLVTGGQVKAPRHHVAAPRRDQIAGSSRTSSVFFLRPNADFTFSVPLARECGFDVSLDGETATFQDWIGGNYVNIRRTSKA
MEQMIFIRKDDKVEVFSEEEELKGSYYRAILEDNPTKSGHNKLKVRYLTQLNEHRLAPLTEFVDQRFIRPVPSEDVNDGVVFVEGLMVDAYLKDGWWTGVVVKTMEDEKFLVYFDCPPDIIQFEKKKLRVHLDWTGFKWIRPDNKELVKSVFSCGTMVELRFDCAWIPVIVIKELEKDKRFLVKYWNKSYSCRESKNLIVDSLRLRPMQPPLSVGKYELLDHVEAFSGFEWRQGVVRGIVFEGRYMVSFGATKEASQFNHSDIRPPMEWEDGVWHKRTKPKRQKETSLDGNRNVQTKEPPGNEMADDVKKESGLPITLGVTATKNKTQGKVSPVPMKNGFGNESTREKMPEEPKIKYYTRKRKRGGLKLNSYINKTVLSSDRTPNVVKNSASNAEENHAKHTIMVLPFAKKSPVWKTYESLEVFKSVSHSLHFSPLFETKQDFREGYAIGMMVTYFGLLEKFKDLEADVPVSQLNSLKDSFSELEKHGFNVTTPLSRIDKLLALKDRQLYIMEELKGFDKEMTNEFSKAKQEFDDMEQKILEVKHKIIELQRQEAALKEQKEAEKEQKDAAWKKICQMESCAKDLNVELEDVEFEFETILSAPW
MTKKKAHKPGSATIALNKRARHEYFIEEEFEAGLALQGWEVKSLRAGKANISDSYVLLRDGEAFLFGANITPMAVASTHVVCDPTRTRKLLLNQRELDSLYGRVNREGYTVVALSLYWKNAWCKVKIGVAKGKKQHDKRSDIKEREWQVDKARIMKNAHR
MSLEFALKAVTEHGPFTDIGKFDQDRWQLFHTDEDRSEAHDLADQHPEKVGEMAALWMSEAKKYHVLPLSDLGVMGILKMEFKPPVPPSRQYAYYPGTSTVPEHSAANTHGVSFKVLADVEFTADSQGILFAHGSRFGGHALYVKNGKLIYVYNFLGIPPEQRLVGDAPRSGKHVVGVEFIKERMGEYKESYGPARLYVDERIVAEAPIRTMTGHFAITGEGLCIGYDSGDGVSNDYRPKFAFSGGKINKVVFDVGADLYVDVETHLVAAMARDEGHHHHHH
SMQPPIAKPGETWILQAKRSDEFNVKDATKWNFQTENYGVWSWKNENATVSKGKLKLTTKRESHQRTFWDGCNQQQVANYPLYYTSGVAKSRATGNYGYYEARIKGASTFPGVSPAFWMYSTIDRSLTKEGDVQYSEIDVVELTQKSAVRESDHDLHNIVVKNGKPTWMRPGSFPQTNHNGYHLPFDPRNDFHTYGVNVTKDKITWYVDGEIVGEKDNLYWHRQMNLTLSQGLRAPHTQWKCNQFYPSANKSAEGFPTSMEVDYVRTWVKV
MSLVIITDATEADLDQIFQIETESFEDPYPYSLLRAYLFLANKLYLVAKQREKVVGYIIGIIQYGYRGHIVSIAVEPIYRKQGIGAKLLNEIEERFKLNGARYSYLEVNTNNLSAISFYRANGYLIMYVRKNYYGRDKHAFVMVKNLYEGHHHHHH
MRKTLIALMFAAALPTVAMAMPEGHGPMGPMDGPRHSEHMRGKGPFSQLDLSREQRQQIGKLMGEQMHDRKAVVEKYLEKLSPADQKAMKDELTAKHQKTQADIRALLKPEQQKEFDTIVKKQEERRAEWAEFKAWKAQQPQKAQLEHHHHHH
PEYSLFVGDLTPDVDDGMLYEFFVKVYPSCRGGKVVLDQTGVSKGYGFVKFTDELEQKRALTECQGAVGLGSKPVRLSVAIPKASRVKPVE
MTNATIAPTTTAAPVTKSVDAPTADENTPLFSPSLISPDVLAVLPADYTIRPLCRSDYKRGYLDVLRVLTTVGDINEEQWNSRYEWIRARSDEYYLLVVCDGEGRIVGTGSLVVERKFIHSLGMVGHIEDIAVEKGQQGKKLGLRIIQALDYVAEKVGCYKTILDCSEANEGFYIKCGFKRAGLEMAHYY

Soluble on expression in E. coli, not soluble:
MGSDKIHHHHHHMIPPVPQKGRGTAHNPHNRFAPGHSVAEDDGWYQEVPQTQGTEVRIETAKSVISRNTSPDLPFDRSINPYRGCEHGCIYCYARPSHAYWDLSPGLDFETKLIAKTNAAEVLAQQLSKPGYVCAPINLGSNTDPYQPIEREQLLTRRLLEVLLRFRHPVTIVTKGSLVLRDLDLLAEMARQRLARVMISLTTLDDGLKRVLEPRAASPGARLRAIRVLREAGVPVGVLCSPMIPMINDSELERLLEAAKEAGAQSAAYMMLRLPLEVAPLFEQWLQDHYPQRAAHVLSLIRQSRGGELYDSRFGVRMRGEGVFAELLAQRFAKAMKRLDFEGREAQELDCSAFCPPGGQMALF
LHIDTEWRSDFKWDRLAEHISDLSGKYVLDIGCGSGYHLWRMRGAGAKFVVGIDPTQLFLMQFNAIKHFIDDSPVHLLPLGVEQLPELKAFDTVFAMGVLYHRRSPIDFLYQLKAQLVKGGELVLETLIVDG
MKRCLAILAFAALLFPALPAYSAPARQPSSNTPPPDIVMHPEYARTIGRLAYVWGWPMVNMLNRNARITKAPHPGLLGGILPAAPRGQVGMLHDYILPAETFVTCPNQDVVYGLGFFSLDTEPVIAQVPDFGDRFWVYALYDHRTNQFGELGKPYRSKPGFYLLVGPNWKGQKPAGVQAIIRSPTALANAIPRIFMDDTDEDRQAIQKKINQVVFYPLKDFDGKMKSLDWQSTADIPNPGADSANAGETRWVVPEEFFNQFGQVLDMVPPLPGEEAMYVQFRSMMDAAAKDPAIKNALVEVAKETEEQVIAPFFQWKHNGKPAGNNWNRSVNNAQTGLDYFNRTGTAKSNMFDNRPNETQYFYTDFDSTGAVLDGGKRYEITFASGQLPPVKGFWSLTLYNKHHLFSPNDLNRYSLGTKNKNLVRGPDGSLTIHVGPTSPGKDKEANWLPSPREPISLYIRAYWGEQAILDGTWKPPAVKKIELEHHHHHH
MELMIGRVVKSHGIRGEVAIEVTTEEPEIRFAQGEVLNGRQGGKEHSLTIASVRPHQNRLLVKFKEIADRTAADSLRGTRFFAAPLDDDVDDGFYDHELEGLAVIHGEEKIGEVSGVIHGPAQSLLEVTLESGKEVLIPFVHDIVPEVDLDAGTCVITPPEGLLEL
MGSDKIHHHHHHMGNRQRILPLGVQAPATLEGYYPCPNAAALHAVLKLVAEPQGLCLYLYGPGGVGKSHLLLGAASALAGWTPYMDCGDVPQLFNRIKDLEGFSSLVAAPLLCLDNIEVWAGQRDKETFLFDLYNERMSNGRPMLLAGRAAPRFLDWALPDWASRASACLQVALRLPDDTERMAILQEMAQRRGLQIGVEAAHYLLRHHARDPRTLDGLLTILDAGSWEHQREVTIPFIRLCLGAEKP
MSSAIERKSLDPSEEPVDEVLQIPPSLLTCGGCQQNIGDRYFLKAIDQYWHEDCLSCDLCGCRLGEVGRRLYYKLGRKLCRRDYLRLFGQDGLCASCDKRIRAYEMTMRVKDKVYHLECFKCAACQKHFCVGDRYLLINSDIVCEQDIYEWTKINGMI
MGSDKIHHHHHHMFGYVKINKMDLTFREYDYYKAYYCGLCKYLKRNHGEISRFSLNYDITFLIVLLTAVYNPESISTEEVCIVNPFKKKKVITNDITEYAASMNILLTYYKLEDNLMDDKRIKDKLAYYIYKNKLKLAYEKYPEKAEYIKQQLNELNKLEKDKNINIDEVSSIFGNIMGEVFVYKKDENERNLRMIGFNIGKYIYLLDAYEDLDEDFKKGRYNPFIEYIDKNDELKEKVKKIIVTSLGFLARGIDNLNLNKNVGIIENIIYSGVYLRYINILESRGGKNVQ
MLTLLNRWRSQPGGASNAAAFIRVLESPKSAVTDKVLVLKAFNDWDVLVNTWFEVADALPAVEQLLDNNTFPEHSSAALLVSKVYFCLEQYERALEFALRGDFNVVPATRTGLGNDAEYVNKIIETAIDTYKTLSKQGSGIPQKLRDLIDRIVARNLDKREIWFVISLGFETTNLAMIDRAISAMPADLTIKNQTTLVETLNRVVNGAFDRSFRFQVIDTVIKTYLKCPSPDMSKICECYVLTDNAEAAADTITSLIAKSLSTRAYQIAFDLYETASQGFLDRVLKRFQQQDARDEKSMEKIHSILKGHETVKAYLDFFVRHNHTDSVLMEEIKENIRTASAHNALLISNGLMQYGTTCDDFLRNNLNWVSKATNWNKFNAVASLGLIHHGQESSAMKVLEPYLPKESVEGFGFKEGGAMLAYGLIHAKHGDATAMSTLAQWLKTAENEPVRHGACLGFGVAGLGSSSVSNYEKVREVLQRDEAVSGESAGIAMGLIMAGHLNQEVFNELKQYTVDTQHDKTQRGIRTGLACAAFGLQGDAEPYIKEAIGAKSNPMLRSTGICMLSMAYAGTGSPDVVRRLLEKVATDPNLDVKRYATIGIGFVLSKDPSTCLSYVAMLTEHFNGHVRYGAAMALGIACAGTGNMEAIALIEPMISDKEGFVRKGALLSLALIMCQQTDYTCPKVNGFRKQLLKKIGEKNEDSLVKFGAIIAQGLLDIGGQNAAVTMQNSDKQPDMGSMVGMMCFLHGWFWHSMHFFIALAAKPSCLVMMNENLKIPVLDYICHANSQKFAYPPRAESKKDKDVKKIETVVLSITGKKNASKKLIAEEKKRREAAASASSAAAAPSSSSTSGTAPAAEDEKMEVDQPGKSKKEKAPEKDTKPLHRLQNPARVIPAQRQLISISDARAYSPMKPLYKGGIIVADRVDKEREEKLVSEVVTQVNTPASSGNTENKPHSTFEININDF
MSLEMKTYIIEKLRETEAIYYIEILLAVESGSRAWGFASPDSDYDIRFIYRHSKDWYLTPWDKDETITFMTEDDLDGSGWDLNKTFHLLLKSNAALLSWFYSPIVYIENKSFTKLFKPLVDQCFSPIAVSFHYLSMSKKYLESCRNDEVKLKSYFYCLRTALSGKWITEKKTVPPVLFSDLLVLADSTIRTKIENLIALKATKGESYFHPNDWELFEFMERQISENEEKAKSLSGSKTDKAQMEKVFREIISEGHHHHHH
MGSDKIHHHHHHMSLPIIKVHWLDHSRAFRLLWLLDHLNLEYEIVPYKRDANFRAPPELKKIHPLGRSPLLEVQDRETGKKKILAESGFIFQYVLQHFDHSHVLMSEDADIADQINYYLFYVEGSLQPPLMIEFILSKVKDSGMPFPISYLARKVADKISQAYSSGEVKNQFDFVEGEISKNNGYLVDGKLSGADILMSFPLQMAFERKFAAPEDYPAISKWLKTITSEESYAASKEKARALGSNF
